Biological target: the molecule itself
Assay: SEC-SAXS; Shodex KW-404 column in line with SAXS; 20 mM Tris-HCl, pH 7.5, 500 mM NaCl, 2% glycerol, 1 mM DTT; injected at 4, 6 and 8 mg/ml; ab initio envelopes (DAMMIF)

B1: N-terminally His-tagged, full-length Bik1 (natural protein, S. cerevisiae, UniProt P11709 1-440, looked up)
chain: MDRYQRKIGCFIQIPNLGRGQLKYVGPVDTKAGMFAGVDLLANIGKNDGSFMGKKYFQTEYPQSGLFIQLQKVASLIEKASISQTSRRTTMEPLSIPKNRSIVRLTNQFSPMDDPKSPTPMRSFRITSRHSGNQQSMDQEASDHHQQQEFGYDNREDRMEVDSILSSDRKANHNTTSDWKPDNGHMNDLNSSEVTIELREAQLTIEKLQRKQLHYKRLLDDQRMVLEEVQPTFDRYEATIQEREKEIDHLKQQLELERRQQAKQKQFFDAENEQLLAVVSQLHEEIKENEERNLSHNQPTGANEDVELLKKQLEQLRNIEDQFELHKTKWAKEREQLKMHNDSLSKEYQNLSKELFLTKPQDSSSEEVASLTKKLEEANEKIKQLEQAQAQTAVESLPIFDPPAPVDTTAGRQQWCEHCDTMGHNTAECPHHNPDNQQFF
notes: Bik1, S. cerevisiae, UniProt P11709, full length (domains described over residues 1-440); Vector PSPCm2: N-terminal 6xHis-tag followed by a PreScission cleavage site; also called Bik1 FL; FL; source: E. coli BL21-CodonPlus (DE3)-RIPL, purified (IMAC, SEC); not shown: His6, N-terminal, kept
Question: With B1 as the protein, how does the “stoichiometry N” value read?
Answer: 2

B2: Bik1 ΔQQFF (domain or fragment, S. cerevisiae, UniProt P11709 1-436, looked up)
chain: MDRYQRKIGCFIQIPNLGRGQLKYVGPVDTKAGMFAGVDLLANIGKNDGSFMGKKYFQTEYPQSGLFIQLQKVASLIEKASISQTSRRTTMEPLSIPKNRSIVRLTNQFSPMDDPKSPTPMRSFRITSRHSGNQQSMDQEASDHHQQQEFGYDNREDRMEVDSILSSDRKANHNTTSDWKPDNGHMNDLNSSEVTIELREAQLTIEKLQRKQLHYKRLLDDQRMVLEEVQPTFDRYEATIQEREKEIDHLKQQLELERRQQAKQKQFFDAENEQLLAVVSQLHEEIKENEERNLSHNQPTGANEDVELLKKQLEQLRNIEDQFELHKTKWAKEREQLKMHNDSLSKEYQNLSKELFLTKPQDSSSEEVASLTKKLEEANEKIKQLEQAQAQTAVESLPIFDPPAPVDTTAGRQQWCEHCDTMGHNTAECPHHNPDN
notes: Bik1, S. cerevisiae, UniProt P11709, lacking the C-terminal EEY/F-like motif (peptide Gln-Gln-Phe-Phe); N-terminal 6xHis-tag followed by a PreScission site, tag retained; source: E. coli BL21-CodonPlus (DE3)-RIPL, purified (IMAC, SEC); not shown: His6, N-terminal, kept
Question: Does B2 bind?
Answer: binds

Reference: paper PMC11782662, “Phase separation of a microtubule plus-end tracking protein into a fluid fractal network” (Nature Communications, 2025)
